This passage reports EC50; IL-7 dose response; NK92/hIL7R/STAT3-luc and 50 nM Ag Bound results from patent US20200247894A1.

Assay [1] deals with human IL2Rγ (endogenously expressed on cells) (human) (UniProt P31785). Put plainly: cell-based or functional assay.
Assay [2] addresses Human IL2Rγ extracellular domain expressed with a C-terminal mouse IgG2a Fc tag (human). As to the kind of experiment: SPR Biacore 4000, anti-hFc-captured mAb, 37 C. For orientation: In SPR one partner is held on a chip, and binding of the other changes the refractive index at the surface.
The target is the same in assay [3]. Put plainly: SPR Biacore 4000, anti-hFc-captured mAb, 25 C.

Sequence of Human IL2Rγ extracellular domain expressed with a C-terminal mouse IgG2a Fc tag (human) (chain, as listed by the source limits assumed): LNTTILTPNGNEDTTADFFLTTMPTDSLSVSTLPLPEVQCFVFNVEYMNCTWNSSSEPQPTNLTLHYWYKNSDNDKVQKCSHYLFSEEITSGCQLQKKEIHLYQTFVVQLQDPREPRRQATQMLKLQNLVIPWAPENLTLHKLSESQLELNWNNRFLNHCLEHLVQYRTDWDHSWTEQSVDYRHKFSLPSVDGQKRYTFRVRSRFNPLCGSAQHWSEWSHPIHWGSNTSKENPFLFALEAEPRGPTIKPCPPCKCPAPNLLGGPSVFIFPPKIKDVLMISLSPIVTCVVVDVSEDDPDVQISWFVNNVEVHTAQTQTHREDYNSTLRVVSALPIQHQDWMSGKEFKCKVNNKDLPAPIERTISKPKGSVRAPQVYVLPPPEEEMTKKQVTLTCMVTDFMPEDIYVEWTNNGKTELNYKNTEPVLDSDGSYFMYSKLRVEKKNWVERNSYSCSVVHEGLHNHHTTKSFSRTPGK
Sequence of human IL2Rγ (endogenously expressed on cells) (human) (P31785 23-369): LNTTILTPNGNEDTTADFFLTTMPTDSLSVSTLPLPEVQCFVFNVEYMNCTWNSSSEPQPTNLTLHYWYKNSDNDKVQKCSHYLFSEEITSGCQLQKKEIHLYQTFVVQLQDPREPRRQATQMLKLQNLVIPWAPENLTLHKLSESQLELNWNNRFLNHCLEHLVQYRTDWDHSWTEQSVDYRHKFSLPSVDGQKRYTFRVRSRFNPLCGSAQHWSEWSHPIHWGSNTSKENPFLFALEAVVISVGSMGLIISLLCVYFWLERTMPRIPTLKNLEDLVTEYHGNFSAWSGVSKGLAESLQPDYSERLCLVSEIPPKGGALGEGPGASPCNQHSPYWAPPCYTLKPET

B1: human IL-7 (ligand, UniProt P13232 26-177, looked up)
chain: DCDIEGKDGKQYESVLMVSIDQLLDSMKEIGSNCLNNEFNFFKRHICDANKEGMFLFRAARKLRQFLKMNSTGDFDLHLLKVSEGTTILLNCTGQVKGRKPAALGEAQPTKSLEENKSLKEQKKLNDLCFLKRLLQEIKTCWNKILMGTKEH
In the case of B1, in assay [1], the EC50; IL-7 dose response; NK92/hIL7R/STAT3-luc worked out at 0.039 nM.

B2: H4H12899P (antibody, human IgG4 S228P, kappa, V domains shown)
VH: QVQLVESGGDLVKPGGSLRLSCATSGFTFSDFYMTWIRQAPGKGLEWISYISNSGSIVKYADSVKGRFTISRDNAKNSLYLQMNSLRAEDTAIYYCARFYGDRWGQGTLVTVSS
VL: DIQLTQSPSFLSASVGDRVTITCWASQGISTFLAWYQQKPGKAPKLLIYAASTLQSGVPSRFSGSGSGTDFTLTISSLQPEDFATYHCQQLNNYPWTFGQGTKVEIKR
Regarding B2, the 50 nM Ag Bound is 2 RU in assay [2] and 1 RU in assay [3].

B3: H4H12900P (antibody, human IgG4 S228P, kappa, V domains shown)
VH: QVQLVESGGGLVKPGGSLRLSCEASGFTFNDFYMTWIRQAPGKGLEWIAYISKSGDKMRYADSVKGRFSTSRDNAKNSLSLQMNSLRAEDTAVYYCARFYGDIWGQGTLVTVSS
VL: DIQLTQSPSFLSASVGDRVTITCWASQDISSFLVWYQQKPGKAPNLLIYAASALQSGVPSRFSGSGSGTEFTLTISSLQPEDFASYYCEQLNNYPWTFGQGTKVEIKR
Consider B3, for which the 50 nM Ag Bound in assay [2] and in assay [3] was 4 RU each time.
